Square brackets hold non-standard residues; d marks the D form. Primed or numbered codes have the meaning given here. Peptide text beside a SMILES is read from it. * marks the point of attachment. Benzoyl(3-OH,4-OMe) = COc1ccc(C(=O)*)cc1O; Fmoc = O=C(OCC1c2ccccc2-c2ccccc21)*; Myristoyl = CCCCCCCCCCCCCC(=O)*; ClZ = O=C(OCc1ccccc1Cl)*; OMe′ = Asp methyl ester; Cbz = O=C(OCc1ccccc1)*; βAla = NCCC(=O)O
Target: T1, Gadd45β/MKK7 interaction (Homo sapiens, UniProt O14733)
T1 construct: The GST-fused full-length kinase was coated for 16 h at 4° C., at a concentration of 42 nM; made in house
T1 sequence (O14733 1-419): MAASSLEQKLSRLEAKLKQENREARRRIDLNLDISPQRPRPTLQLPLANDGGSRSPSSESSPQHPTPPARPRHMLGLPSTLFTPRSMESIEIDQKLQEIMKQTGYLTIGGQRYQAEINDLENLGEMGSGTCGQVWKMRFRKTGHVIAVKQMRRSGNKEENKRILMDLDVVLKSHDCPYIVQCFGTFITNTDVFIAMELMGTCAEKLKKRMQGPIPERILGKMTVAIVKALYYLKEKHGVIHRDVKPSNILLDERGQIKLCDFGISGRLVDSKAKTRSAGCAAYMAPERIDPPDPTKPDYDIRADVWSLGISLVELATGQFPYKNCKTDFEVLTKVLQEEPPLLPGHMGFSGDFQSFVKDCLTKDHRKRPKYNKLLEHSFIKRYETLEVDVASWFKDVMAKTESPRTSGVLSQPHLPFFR
Experiment: ELISA competition assay of biotin-hGadd45β binding to coated GST-MKK7
Conditions: for IC50: Table V, FIG. 3C, read-out: IC50 ELISA
Procedure: To evaluate the inhibitory properties of peptides, ELISA-based assays were performed. In these assays, a fusion protein of glutathione S-transferase (GST) and mitogen-activated protein kinase kinase 7 (MKK7) was coated onto wells of a 96-well plate, while biotinylated-hGadd45β was used in solution. hGadd45β was biotinylated using an EZ Link NHS-LC-biotin kit (Pierce, Rockford, Ill.), according to Tornatore et al. (Tornatore L., et al. (2008). J Mol Biol; 378:97-111).
Firstly, the association between Gadd45β and MKK7 was investigated by ELISA assays as also reported in Tornatore et al. (Tornatore L., et al. (2008). J Mol Biol; 378:97-111). The GST-fused full-length kinase was coated for 16 h at 4° C., at a concentration of 42 nM in buffer A (25 mM Tris pH 7.5, 150 mM NaCl, 1 mM DTT and 1 mM EDTA) into wells of a 96-well microliter plate. Some wells were filled with buffer alone and were used as blanks. After incubation for 16 h at 4° C., the solutions were removed and the wells were filled with 350 μL of a 1% (w/v) solution of NFDM (Non Fat Dry Milk) in PBS (phosphate buffered saline). The plate was incubated for 1 h at 37° C. in the dark. After washing with buffer T-PBS (PBS with 0.004% (v/v) Tween detergent), the wells were filled with 100 μL of biotinylated-hGadd45β at concentrations ranging from 8.4 nM to 168 nM. Each data point was performed in triplicate. Following incubation for 1 hr in the dark at 37° C. the solutions were removed and the wells were again washed with T-PBS. Then 100 μL of a 1:10,000 dilution of horseradish peroxidase-conjugated streptavidin dissolved in buffer was added to each well and the plate incubated for 1 hr at 37° C. in the dark. After removal of the enzyme solution and washing, 100 μL of the chromogenic substrate o-phenylendiamine (0.4 mg/mL in 50 mM sodium phosphate-citrate buffer, containing 0.4 mg/mL of urea in hydrogen peroxide) was added and the colour was allowed to develop in the dark for 5 min. The reaction was stopped by adding 50 μL of 2.5 M H2SO4. The absorbance at 490 nm was measured in all wells and the values were averaged after subtracting the corresponding blanks. Bound protein was then detected as described above. The molar concentration of biotinylated-hGadd45β at which the half-maximal ELISA signal is detected corresponds to the dissociation constant (KD) (Friguet B, Chaffotte A F, Djavadi-Ohaniance L, Goldberg M E. J Immunol Methods. 1985 Mar. 18; 77 (2):305-19). Binding competition assays were performed by coating GST-MKK7 at 42 nM as described, a concentration of biotinylated-hGadd45β of 21 nM (pre-saturation conditions 1:0.5 mol/mol ratio) and, in a first test, using competitors at 21 nM. The binding of biotinylated hGadd45β to GST-MKK7 was analyzed in the presence of increasing amounts of competitor peptide (concentrations ranging from 0.01 nM to 100 nM), and the values obtained with the competitor were expressed as the percentage of the binding detected in the absence of competitor. […] According to the convention adopted in the table “L-Xaa” and “D-Xaa” refer to the L and D forms of amino acid Xaa.
A simplified combinatorial peptide library (Marasco et al. 2008, Curr. Protein Pept. Sci. 9:447-67) was screened for antagonists of the Gadd45β/MKK7 interaction. This library contained a total of 12^4=20,736 different tetrapeptides formed by combinations of the following amino acid residues Gln (Q), Ser (S), Arg (R), Ala (A), Tyr (Y), Pro (P), Met (M), Cys (C), Phe (F), Leu (L), His (H), Asp (D), and was iteratively deconvoluted in four steps by ELISA competition assays using at each step coated MKK7 (42 nM), soluble-biotin-hGadd45β (21 nM) and each of the 12 sub-libraries (42 nM).

[1] = Table II, modified pure peptides
[2] = Table I, initial Elisa screening, coated MKK7 42 nM, biotin-hGadd45β 21 nM, competitor 21 nM, sub-libraries 42 nM

## Ac-YEHF-NH2
[1]
  % Inhibition of Gadd45β-MKK7 binding: 52%
Table III, modified peptides
  % Inhibition of Gadd45β-MKK7 binding: 23%

## NC(=O)CC[C@@H](NC(=O)[C@@H](Cc1c[nH]cn1)NC(=O)[C@@H](CC(=O)O)NC(=O)[C@@H](Cc1ccc(O)cc1)NC(=O)OCc1ccccc1)C(N)=O [Compound 32, Z-Tyr-Asp-His-Gln-NH2] (Cbz-[dY][dD][dH][dQ]-NH2)
  IC50: > 10 nM

## Fmoc(βAla)2-YDHR-NH2 ({Fmoc-βAla-βAla}-YDHR-NH2; SMILES N=C(N)NCCC[C@H](NC(=O)[C@H](Cc1c[nH]cn1)NC(=O)[C@H](CC(=O)O)NC(=O)[C@H](Cc1ccc(O)cc1)NC(=O)CCNC(=O)CCNC(=O)OCC1c2ccccc2-c2ccccc21)C(N)=O)
[2]
  % Inhibition of Gadd45β-MKK7 binding: 2%

## Ac-YDHFLys(Z)-NH2 (Ac-YDHFK(Cbz)-NH2; SMILES CC(=O)N[C@@H](Cc1ccc(O)cc1)C(=O)N[C@@H](CC(=O)O)C(=O)N[C@@H](Cc1c[nH]cn1)C(=O)N[C@@H](Cc1ccccc1)C(=O)N[C@@H](CCCCNC(=O)OCc1ccccc1)C(N)=O)
Table III, modified peptides
  % Inhibition of Gadd45β-MKK7 binding: 8%

## Fmoc(βAla)2-YDHL-NH2 ({Fmoc-βAla-βAla}-YDHL-NH2; SMILES CC(C)C[C@H](NC(=O)[C@H](Cc1c[nH]cn1)NC(=O)[C@H](CC(=O)O)NC(=O)[C@H](Cc1ccc(O)cc1)NC(=O)CCNC(=O)CCNC(=O)OCC1c2ccccc2-c2ccccc21)C(N)=O)
[2]
  % Inhibition of Gadd45β-MKK7 binding: 33%

## Benzoic acid-YDHF-NH2
Table III, modified peptides
  % Inhibition of Gadd45β-MKK7 binding: 0%

## Ac-YDRW-NH2
[1]
  % Inhibition of Gadd45β-MKK7 binding: 43%

## Fmoc(βAla)2-YDHF-NH2 ({Fmoc-βAla-βAla}-YDHF-NH2)
[2]
  % Inhibition of Gadd45β-MKK7 binding: 99%

## NC(=O)CC[C@@H](NC(=O)[C@@H](Cc1c[nH]cn1)NC(=O)[C@@H](CC(=O)O)NC(=O)[C@@H](Cc1ccc(O)cc1)NC(=O)[C@@H](Cc1ccc(O)cc1)NC(=O)OCc1ccccc1)C(N)=O [Compound 33, Z-Tyr-Tyr-Asp-His Gln-NH2] (Cbz-[dY][dY][dD][dH][dQ]-NH2)
  IC50: > 10 nM

## Fmoc(βAla)2-YDHC-NH2 ({Fmoc-βAla-βAla}-YDHC-NH2; SMILES NC(=O)[C@H](CS)NC(=O)[C@H](Cc1c[nH]cn1)NC(=O)[C@H](CC(=O)O)NC(=O)[C@H](Cc1ccc(O)cc1)NC(=O)CCNC(=O)CCNC(=O)OCC1c2ccccc2-c2ccccc21)
[2]
  % Inhibition of Gadd45β-MKK7 binding: 44%

## Ac-YDKF-NH2
[1]
  % Inhibition of Gadd45β-MKK7 binding: 35%

## Ac-YERW-NH2
[1]
  % Inhibition of Gadd45β-MKK7 binding: 59%

## Fmoc-YERF-NH2
Table III, modified peptides
  % Inhibition of Gadd45β-MKK7 binding: 60%

## Ac-WERW-NH2
[1]
  % Inhibition of Gadd45β-MKK7 binding: 69%

## Ac-WEKW-NH2
[1]
  % Inhibition of Gadd45β-MKK7 binding: 65%

## Ac-WEKF-NH2
[1]
  % Inhibition of Gadd45β-MKK7 binding: 65%

## Ac-YEPF-NH2
Table III, modified peptides
  % Inhibition of Gadd45β-MKK7 binding: 13%

## Ac-WERF-NH2
[1]
  % Inhibition of Gadd45β-MKK7 binding: 29%

## Ac-WDHF-NH2
[1]
  % Inhibition of Gadd45β-MKK7 binding: 28%

## 2CI-Z-YERF-NH2 (ClZ-YERF-NH2)
Table III, modified peptides
  % Inhibition of Gadd45β-MKK7 binding: 38%

## CC(=O)N[C@H](CC1CCCCC1)C(=O)N[C@H](CCCNC(=N)N)C(=O)N[C@H](Cc1ccccc1)C(N)=O [Compound 20, Ac-Cha-Arg-Phe-NH2]
  IC50: > 5 nM
Result in words
  inhibition of Gadd45β/MKK7 complex formation in ELISA competition assays: inactive

## Ac-WDRW-NH2
[1]
  % Inhibition of Gadd45β-MKK7 binding: 93%

## Fmoc(βAla)2-YDHM-NH2 ({Fmoc-βAla-βAla}-YDHM-NH2; SMILES CSCC[C@H](NC(=O)[C@H](Cc1c[nH]cn1)NC(=O)[C@H](CC(=O)O)NC(=O)[C@H](Cc1ccc(O)cc1)NC(=O)CCNC(=O)CCNC(=O)OCC1c2ccccc2-c2ccccc21)C(N)=O)
[2]
  % Inhibition of Gadd45β-MKK7 binding: 14%

## Ac-WEHW-NH2
[1]
  % Inhibition of Gadd45β-MKK7 binding: 75%

## Ac-WDKF-NH2
[1]
  % Inhibition of Gadd45β-MKK7 binding: 26%

## Fmoc-YDFQ-NH2 (SMILES NC(=O)CC[C@H](NC(=O)[C@H](Cc1ccccc1)NC(=O)[C@H](CC(=O)O)NC(=O)[C@H](Cc1ccc(O)cc1)NC(=O)OCC1c2ccccc2-c2ccccc21)C(N)=O)
Table III, modified peptides
  % Inhibition of Gadd45β-MKK7 binding: 19%

## Z-YD(OMe)HF-NH2 (Cbz-YD(OMe′)HF-NH2)
Table III, modified peptides
  % Inhibition of Gadd45β-MKK7 binding: 84%

## Myr-YDHQ-NH2 (Myristoyl-YDHQ-NH2)
Table III, modified peptides
  % Inhibition of Gadd45β-MKK7 binding: 28%

## Ac-YDHQ-NH2
[1]
  % Inhibition of Gadd45β-MKK7 binding: 99%

## Ac-YDHQLys(Z)-NH2 (Ac-YDHQK(Cbz)-NH2; SMILES CC(=O)N[C@@H](Cc1ccc(O)cc1)C(=O)N[C@@H](CC(=O)O)C(=O)N[C@@H](Cc1c[nH]cn1)C(=O)N[C@@H](CCC(N)=O)C(=O)N[C@@H](CCCCNC(=O)OCc1ccccc1)C(N)=O)
Table III, modified peptides
  % Inhibition of Gadd45β-MKK7 binding: 2%

## Ac-YARF-NH2
Table III, modified peptides
  % Inhibition of Gadd45β-MKK7 binding: 17%

## Ac-YEKF-NH2
[1]
  % Inhibition of Gadd45β-MKK7 binding: 64%

## Fmoc(βAla)2-YDHD-NH2 ({Fmoc-βAla-βAla}-YDHD-NH2; SMILES NC(=O)[C@H](CC(=O)O)NC(=O)[C@H](Cc1c[nH]cn1)NC(=O)[C@H](CC(=O)O)NC(=O)[C@H](Cc1ccc(O)cc1)NC(=O)CCNC(=O)CCNC(=O)OCC1c2ccccc2-c2ccccc21)
[2]
  % Inhibition of Gadd45β-MKK7 binding: 0%

## Ac-WEHF-NH2
[1]
  % Inhibition of Gadd45β-MKK7 binding: 36%

## Ac-YDRF-NH2
[1]
  % Inhibition of Gadd45β-MKK7 binding: 45%
Table III, modified peptides
  % Inhibition of Gadd45β-MKK7 binding: 19%

## Ac-YERP-NH2
Table III, modified peptides
  % Inhibition of Gadd45β-MKK7 binding: 0%

## 3-OH—4MeO-Benzoid acid-YERF-NH2 ({Benzoyl(3-OH,4-OMe)}-YERF-NH2)
Table III, modified peptides
  % Inhibition of Gadd45β-MKK7 binding: 86%

## N=C(N)NCCC[C@@H](NC(=O)[C@@H](CCC(=O)O)NC(=O)[C@@H](Cc1ccc(O)cc1)NC(=O)[C@@H](Cc1ccc(O)cc1)NC(=O)OCc1ccccc1)C(=O)N[C@H](Cc1ccccc1)C(N)=O [Compound 22, Z-Tyr-Tyr-Glu-Arg-Phe-NH2] (Cbz-[dY][dY][dE][dR][dF]-NH2)
  IC50: > 5 nM

## Myr-YDHF-NH2 (Myristoyl-YDHF-NH2)
Table III, modified peptides
  % Inhibition of Gadd45β-MKK7 binding: 26%

## Ac-WDHW-NH2
[1]
  % Inhibition of Gadd45β-MKK7 binding: 50%

## Fmoc(βAla)2-YDHA-NH2 ({Fmoc-βAla-βAla}-YDHA-NH2; SMILES C[C@H](NC(=O)[C@H](Cc1c[nH]cn1)NC(=O)[C@H](CC(=O)O)NC(=O)[C@H](Cc1ccc(O)cc1)NC(=O)CCNC(=O)CCNC(=O)OCC1c2ccccc2-c2ccccc21)C(N)=O)
[2]
  % Inhibition of Gadd45β-MKK7 binding: 15%
